We go through eight molecules from patent publication US12472269B2, “Liver-specific inducible promoters and methods of use thereof” (ASKBIO INC., priority 2019, dated 2025).

This data set relates to AXOL ARE-hepatocytes. Nature of the data set: Luciferase expression from PBREM promoters in AXOL ARE-hepatocytes, induction by CITCO. In kind it is cell-based, human. As to conditions: for induced luciferase expression as a ratio to CMV-IE: induction with CITCO, mean of 3 biological replicates. The source says:
Axol Assay-Ready Expanded (ARE) Hepatocytes are primary human hepatocytes that have been expanded in vitro. Large batch sizes (up to 2000 vials) are available, ensuring a reliable, ready-to-use and consistent source of primary hepatocytes. ARE Hepatocytes express CYP enzymes, are metabolically functional, are polarized and can be infected by the Hepatitis C virus. AXOL ARE-hepatocytes express CAR negating the need to transfect with a CAR-expressing plasmid.
• AXOL assay-ready expanded (ARE) hepatocytes (Axol, ax3701) • ARE hepatocyte thawing medium (Axol, ax3705) • ARE maintenance medium (Axol, ax3710) • Virimer red transfection reagent (Lipocalyx, VR04-02-15) • CITCO, lucifierase, β-galactosidase and BCA kits as described above
ARE hepatocytes were cultured and transfected as described in the manufacturer's manual. 200,000 cells were seeded in 2 ml culture medium in collagen-coated 6 well plate. The cells were incubated for 4 h at 37° C. and 5% CO2 for sufficient adhesion. 200 μl of transfection mixture containing the DNA to be transfected (PB1-MinTK/PB1-CMV/PB1-SV40 operably linked with luciferase and β-galactosidase containing promoter) was added and the cells were incubated on an orbital shaker at 100 rpm for three hours at 37° C. and 5% CO2. 3 hrs after transfection CITCO was added to the appropriate wells. Cells were incubated under static conditions at 37° C. and 5% CO2 overnight and in the morning the medium was replaced with fresh ARE Hepatocyte Maintenance Medium. Readout was 24 hrs after induction. […]

Setting [1] is: single PBREM element, minimal promoters compared.

B1: PB1-3-MinTK: promoter: 4 mouse PBREM elements with MinTK minimal promoter, SEQ ID NO: 12 (nucleic acid)
DNA: TCTGTACTTTCCTGACCTTGGCACAGTGCCACCATCAACTTGCCTGACACCCATTACTCGCATCCATTCTCTCTGTACTTTCCTGACCTTGGCACAGTGCCACCATCAACTTGCCTGACACCGCACTGAAGGTCCTCAATCGTCTGTACTTTCCTGACCTTGGCACAGTGCCACCATCAACTTGCCTGACACCCTGACCTCCTGCCAGCAATATCTGTACTTTCCTGACCTTGGCACAGTGCCACCATCAACTTGCCTGACACCGCTGGGAGTTCGTAGACGGAGATCCGGCCCCGCCCAGCGTCTTGTCATTGGCGAATTCGAACACGCAGATGCAGTCGGGGCGGCGCGGTCCGAGGTCCACTTCGCATATTAAGGTGACGCGTGTGGCCTCGAACACCGAGCGACCCTGCAGCGACCCGCTTAACAGCGTCAACAGCGTGCCGCAGATCTCGAGGAGCTTGGCGAGATTTTCAGGAGCTAAGGAAGCTAAAC
modifications: PB1-3-MinTk
Regarding B1, the “induced luciferase expression as a ratio to CMV-IE” value was 2.66.

B2: PB1-1-MinTK: promoter: 2 mouse PBREM elements with MinTK minimal promoter, SEQ ID NO: 10 (nucleic acid)
DNA: TCTGTACTTTCCTGACCTTGGCACAGTGCCACCATCAACTTGCCTGACACCCATTACTCGCATCCATTCTCTCTGTACTTTCCTGACCTTGGCACAGTGCCACCATCAACTTGCCTGACACCGCTGGGAGTTCGTAGACGGAGATCCGGCCCCGCCCAGCGTCTTGTCATTGGCGAATTCGAACACGCAGATGCAGTCGGGGCGGCGCGGTCCGAGGTCCACTTCGCATATTAAGGTGACGCGTGTGGCCTCGAACACCGAGCGACCCTGCAGCGACCCGCTTAACAGCGTCAACAGCGTGCCGCAGATCTCGAGGAGCTTGGCGAGATTTTCAGGAGCTAAGGAAGCTAAAC
modifications: PB1-1-MinTk (2xPBREM)
As to B2, the “induced luciferase expression as a ratio to CMV-IE” value was 1.5.

B3: PB1-CMV-MP: promoter: 1 mouse PBREM element with CMV minimal promoter, SEQ ID NO: 8 (nucleic acid)
DNA: TCTGTACTTTCCTGACCTTGGCACAGTGCCACCATCAACTTGCCTGACACCGCTGGGAGTTCGTAGACGGAGCGATTAATCCATATGCAGGTCTATATAAGCAGAGCTCGTTTAGTGAACCGTCAGATCGCCTAGATACGCCATCCACGCTGTTTTGACCTCCATAGAAGATCGCCACCC
modifications: PB1-CMV-MP
Turning to B3, the “expression level compared to CMV-IE” value (1 μM CITCO) is reported as 10%. Also, under setting [1], the expression driven entry is on record as “little to no expression”.

B4: PB1-SV40-MP: promoter: 1 mouse PBREM element with SV40 minimal promoter, SEQ ID NO: 9 (nucleic acid)
DNA: TCTGTACTTTCCTGACCTTGGCACAGTGCCACCATCAACTTGCCTGACACCGCTGGGAGTTCGTAGACGGACTAGCCCGGGCTCGAGATCTGCGATCTGCATCTCAATTAGTCAGCAACCATAGTCCCGCCCCTAACTCCGCCCATCCCGCCCCTAACTCCGCCCAGTTCCGCCCATTCTCCGCCCCATCGCTGACTAATTTTTTTTATTTATGCAGAGGCCGAGGCCGCCTCGGCCTCTGAGCTATTCCAGAAGTAGTGAGGAGGCTTTTTTGGAGGCCTAGGCTTTTGCAAAAAGCTTGGCATTCCGGTACTGTTGGTAAAGCCACCC
modifications: PB1-SV40-MP
In the case of B4, the “expression level compared to CMV-IE” value (1 μM CITCO) is recorded as 55%. Besides, under “1 μM CITCO, readout 24 hrs after induction”, the “induction of luciferase expression” value is “around 7 fold”. Besides, under setting [1], the background level entry is “higher background level” and the expression driven entry is given as “highest expression”.

B5: PB1-3-SV40: promoter: 4 mouse PBREM elements with SV40 minimal promoter, SEQ ID NO: 15 (nucleic acid)
DNA: TCTGTACTTTCCTGACCTTGGCACAGTGCCACCATCAACTTGCCTGACACCCATTACTCGCATCCATTCTCTCTGTACTTTCCTGACCTTGGCACAGTGCCACCATCAACTTGCCTGACACCGCACTGAAGGTCCTCAATCGTCTGTACTTTCCTGACCTTGGCACAGTGCCACCATCAACTTGCCTGACACCCTGACCTCCTGCCAGCAATATCTGTACTTTCCTGACCTTGGCACAGTGCCACCATCAACTTGCCTGACACCGCTGGGAGTTCGTAGACGGACTAGCCCGGGCTCGAGATCTGCGATCTGCATCTCAATTAGTCAGCAACCATAGTCCCGCCCCTAACTCCGCCCATCCCGCCCCTAACTCCGCCCAGTTCCGCCCATTCTCCGCCCCATCGCTGACTAATTTTTTTTATTTATGCAGAGGCCGAGGCCGCCTCGGCCTCTGAGCTATTCCAGAAGTAGTGAGGAGGCTTTTTTGGAGGCCTAGGCTTTTGCAAAAAGCTTGGCATTCCGGTACTGTTGGTAAAGCCACCC
modifications: PB1-3-SV40
As for B5, the “induced luciferase expression as a ratio to CMV-IE” value is listed as 2.57.

B6: PB1-1-CMV: promoter: 2 mouse PBREM elements with CMV minimal promoter, SEQ ID NO: 16 (nucleic acid)
DNA: TCTGTACTTTCCTGACCTTGGCACAGTGCCACCATCAACTTGCCTGACACCCATTACTCGCATCCATTCTCTCTGTACTTTCCTGACCTTGGCACAGTGCCACCATCAACTTGCCTGACACCGCTGGGAGTTCGTAGACGGAGCGATTAATCCATATGCAGGTCTATATAAGCAGAGCTCGTTTAGTGAACCGTCAGATCGCCTAGATACGCCATCCACGCTGTTTTGACCTCCATAGAAGATCGCCACCC
modifications: PB1-1-CMV
On to B6, for which the “induced luciferase expression as a ratio to CMV-IE” value is on record as 1.9.

B7: PB1-1-SV40: promoter: 2 mouse PBREM elements with SV40 minimal promoter, SEQ ID NO: 13 (nucleic acid)
DNA: TCTGTACTTTCCTGACCTTGGCACAGTGCCACCATCAACTTGCCTGACACCCATTACTCGCATCCATTCTCTCTGTACTTTCCTGACCTTGGCACAGTGCCACCATCAACTTGCCTGACACCGCTGGGAGTTCGTAGACGGACTAGCCCGGGCTCGAGATCTGCGATCTGCATCTCAATTAGTCAGCAACCATAGTCCCGCCCCTAACTCCGCCCATCCCGCCCCTAACTCCGCCCAGTTCCGCCCATTCTCCGCCCCATCGCTGACTAATTTTTTTTATTTATGCAGAGGCCGAGGCCGCCTCGGCCTCTGAGCTATTCCAGAAGTAGTGAGGAGGCTTTTTTGGAGGCCTAGGCTTTTGCAAAAAGCTTGGCATTCCGGTACTGTTGGTAAAGCCACCC
modifications: PB1-1-SV40
Turning to B7, the “induced luciferase expression as a ratio to CMV-IE” value amounted to 2.6.

B8: PB1-2-SV40: promoter: 3 mouse PBREM elements with SV40 minimal promoter, SEQ ID NO: 14 (nucleic acid)
DNA: TCTGTACTTTCCTGACCTTGGCACAGTGCCACCATCAACTTGCCTGACACCCATTACTCGCATCCATTCTCTCTGTACTTTCCTGACCTTGGCACAGTGCCACCATCAACTTGCCTGACACCGCACTGAAGGTCCTCAATCGTCTGTACTTTCCTGACCTTGGCACAGTGCCACCATCAACTTGCCTGACACCGCTGGGAGTTCGTAGACGGACTAGCCCGGGCTCGAGATCTGCGATCTGCATCTCAATTAGTCAGCAACCATAGTCCCGCCCCTAACTCCGCCCATCCCGCCCCTAACTCCGCCCAGTTCCGCCCATTCTCCGCCCCATCGCTGACTAATTTTTTTTATTTATGCAGAGGCCGAGGCCGCCTCGGCCTCTGAGCTATTCCAGAAGTAGTGAGGAGGCTTTTTTGGAGGCCTAGGCTTTTGCAAAAAGCTTGGCATTCCGGTACTGTTGGTAAAGCCACCC
modifications: PB1-2-SV40
Consider B8, for which the “induced luciferase expression as a ratio to CMV-IE” value was determined as 3.6.
